Data published in patent US8933202B2, “AXL antibodies” (U3 Pharma GmbH, priority 2007, dated 2015).

How the values were obtained:
human AXL-ECD = biological target: T1, human AXL-ECD (Homo sapiens, UniProt P30530); assay: Competition ELISA on AXL-ECD coated plates; type: binding; conditions: 10 μg/ml unbiotinylated, 0.5 μg/ml biotinylated antibody
T1 construct: purchased R&D Systems 154-AL
T1 sequence (P30530 26-451 limits assumed): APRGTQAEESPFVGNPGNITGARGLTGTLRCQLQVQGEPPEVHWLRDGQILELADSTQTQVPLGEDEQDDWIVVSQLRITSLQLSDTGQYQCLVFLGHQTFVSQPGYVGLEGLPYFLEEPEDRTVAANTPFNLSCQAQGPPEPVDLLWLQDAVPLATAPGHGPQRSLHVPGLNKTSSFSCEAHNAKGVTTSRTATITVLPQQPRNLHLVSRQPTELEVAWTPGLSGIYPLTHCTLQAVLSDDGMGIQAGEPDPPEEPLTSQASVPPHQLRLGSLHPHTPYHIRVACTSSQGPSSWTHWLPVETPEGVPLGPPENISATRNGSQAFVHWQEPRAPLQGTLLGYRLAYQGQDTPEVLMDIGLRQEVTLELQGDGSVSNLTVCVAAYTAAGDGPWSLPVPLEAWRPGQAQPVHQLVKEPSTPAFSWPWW
Method: Therefore binding of biotinylated anti-AXL antibodies to AXL-ECD domain-coated plates preincubated with anti-AXL antibodies was determined in a competition ELISA. […] On day 1, black 96 well Maxi-Sorp plates (Nunc) were coated with 100 μl/well of 1 μg/ml human AXL-ECD (R&D Systems #154-AL) in PBS over night at 4° C. […] After washing 6× with wash buffer (PBS, 0.1% TWEEN-20), 80 μl/well AP-conjugated Streptavidin (Chemicon #SA110) diluted 1:4,000 in blocking buffer were added, incubated for 20 min at room temperature washed again 6× with wash buffer and finally washed once with PBS. For detection, 100 μl/well Attophos substrate solution (Roche #11681982) were added. Using a Victor plate reader (Perkin Elmer), the fluorescence of each well was collected at an excitation wavelength of 430 nm an emission wavelength of 580 nm.

[1] = tested on: NCI-H292 lung cancer cells; assay: Wound healing/scratch assay; type: cell-based, human; conditions: 10 μg/ml antibody, 24 h, compared to isotypic control antibody
From the text: To examine the migration and proliferation rates of different cells and culture conditions, in vitro wound healing/scratch assays are being employed for many years. These assays generally involve growing a confluent cell monolayer first. A small area is then disrupted and a group of cells are being destroyed or displaced by scratching a line through the layer with, for example, a pipette tip. The open gap is then inspected microscopically over time as the cells move in and fill the damaged area (“healing”). In brief, 1.5×10^6 NCI-H292 lung cancer cells were seeded per well of a 12 well dish and cultured in normal growth medium (RPMI, 10% FCS). After 8 h, cells were rinsed with PBS and starved in low serum medium (RPMI, 0.5% FCS) over night for 24 h. Using a sterile 200 μl pipette tip, three separate uniform wounds per well were scratched through the confluent NCI-H292 cell monolayers. […] Cells were permitted to migrate into the area of clearing for 24 h, washed once with PBS and fixed with ice cold Methanol (100%) at −20° C. After cells were stained with crystal violet (0.5% in 20% Methanol), rinsed with water and dried over night, photos of the wounds were taken.

[2] = tested on: NCI/ADR-RES ovarian cancer cells; assay: TUNEL staining, combination with doxorubicin; type: cell-based, human; conditions: 24 h
From the text: As rat anti-Axl antibodies of the invention turned out to interfere with Gas6-mediated anti-apoptosis of serum-starved NIH3T3-Axl cl.7 fibroblasts, the question arose, whether antagonistic anti-Axl antibodies would synergize with chemotherapeutic agents in inducing apoptosis, thereby contributing to overcome drug resistance. In this example, NCI/ADR-RES (originally named MCF-7/AdrR) cells—a ovarian cancer cell line (Liscovitch and Ravid, 2007, Cancer Letters, 245, 350-352) displaying a high level of resistance to several agents including doxorubicin (Fairchild et al., 1987, Cancer Research, 47, 5141-5148; Xu et al., 2002, The Journal of Pharmacology and Experimental Therapeutics, 302, 963-971)—were incubated with the antagonistic anti-Axl antibody 11B7 and/or doxorubicin, and apoptosis rates were determined by TUNEL staining. In brief, 3×10^4 NCI/ADR-RES cells in normal growth medium were seeded per well of an 8-chamber culture slide (BD Falcon, cat#354118) which were pre-incubated with the same medium for 1 h at 37° C. The next morning, normal growth medium was removed and cells were washed with and cultured in serum-reduced (0.5% FCS) medium. In the evening, isotypic control antibody 1D5 or the antagonistic anti-Axl antibody 11B7 were added at final concentrations of 10 μg/ml each. In the morning of day 3, doxorubicin at final concentrations of 100 μM, 150 μM, or 200 μM was added, and cells were incubated at 37° C. After 24 h, cells were rinsed once with PBS, fixed with 4% formaldehyde in PBS (pH 7.5) for 20 min at room temperature, air-dried for 5 min, and stored at −20° C. Using the commercially available Fluorescein-FragEL™ kit (Oncogene, cat#QIA39, presently being distributed through Merck-Calbiochem), TUNEL staining was performed according to the supplier's manual instructions (chapter ‘Fluorescein-FragEL™ of cell preparations fixed on slides’, page 10). Applying fluorescence microscopy, cells were analyzed and photos were taken.

B1: 11B7: antagonistic rat anti-AXL monoclonal antibody, rat IgG1 (antibody, V domains shown)
VL: DIQMTQAPSSLPASLGDRVTITCRASQDIGNYLRWFQQKPGKSPRLMISGATNLAAGVPSRFSGSRSGSDYSLTISSLESEDMADYYCLQSKESPWTFGGGTKLELK
VH: EVQLQESGPGLVKPSQSLSLTCSVTGYSITSNYWGWIRKFPGDKMEWMGYITYSGSTSYNPSLKSRISITRDTSKNQFFLQLNSVTSEDTATYYCAITTFYYWGQGVMVTVSS
competition with antagonistic anti-AXL antibodies for binding to AXL-ECD (human AXL-ECD): compete with each other for the same or structurally adjacent epitopes
re-population of the cleared area (wound closure) [1]: reduced the re-population of the cleared area
apoptosis (TUNEL staining), co-incubation with 100 μM doxorubicin ([2]; 10 μg/ml 11B7 + 100 μM doxorubicin): No TUNEL staining, and hence no apoptosis
apoptosis (TUNEL staining), co-incubation with 150 μM doxorubicin ([2]; 10 μg/ml 11B7 + 150 μM doxorubicin): substantial induction of apoptosis
apoptosis (TUNEL staining), co-incubation with 200 μM doxorubicin ([2]; 10 μg/ml 11B7 + 200 μM doxorubicin, compared to control IgG antibody): significantly increased apoptosis rates
